B1: X protein: 87 amino acid X protein of Borna Disease Virus, expressed from a lentiviral vector (LV-X) (protein)
chain: MSSDLRLTLLELVRRLNGNATIESGRLPGGRRRSPDTTTGTVGVTKTTEDPKECIDPTGRPAPEGPQEEPLHDLRPRPANRKGAAIE
modifications: Borna disease virus

What was measured:
primary cortical neurons [1] = experiment: Kinetics of neuronal death (pyknotic nuclei, TOPRO-3) after rotenone in microfluidic cultures; type: cell-based, rat; details: somatic application of rotenone
Procedure: 12 day-old neuronal cultures were subjected to oxidative stress by adding the respiratory chain complex I inhibitors rotenone (1 μM, diluted in DMEM containing 1 g/L glucose (Invitrogen), supplemented with 2 mM glutamine+1% penicillin/streptomycin+2% B-27+1% N2 supplements (Invitrogen)) or MPP+(1-methyl-4-phenylpyridinium, 10 μM in complete neuronal culture medium). The microtubule inhibitor colchicine (10 μM, complete neuronal culture medium) was used as a non-mitochondrial stress control. Toxins were added in the somatic or axonal chambers for respectively, somatic or axonal stress.
Neurons in the microfluidic cultures were fixed for 40 min at room temperature with PBS containing 4% paraformaldehyde (PFA), permeabilized using PBS+0.1% Triton-X100 during 20 min, rinsed with PBS, and blocked for 2 h with PBS+2.5% normal goat serum+3% BSA (blocking buffer). […] Fluorescence-based analyses and measurements were performed on either Zeiss LSM-510 or Zeiss LSM-710 inverted confocal microscopes with a 40× objective (63× objective for the analysis of mitochondrial network morphology and quantification of pDrp1 (S616) immunoreactivity). Immuno fluorescence analyses of Drp1 were performed using anti-pDrp1 (S616) (Cell Signaling Technologies, diluted 1:1000). Quantification of fluorescence intensities was performed using the threshold-based fluorescence quantification module of ImageJ software. […]

primary cortical neurons [2] = experiment: Axonal fragmentation in microfluidic primary neuron cultures after toxin treatment; type: cell-based, rat; details: neurons transduced with lentiviral vectors; rotenone in axonal chamber 16 h
Procedure: Primary cortical neurons were prepared from Sprague-Dawley rat embryos at gestational day 17. After dissection, cortex tissue was dissociated by a 15 min incubation at 37° C. in PBS containing 10 U/ml Papain (Worthington), followed by a gentle dissociation in PBS containing 1.5 mg/ml bovine serum albumin (BSA) and 1.5 mg/ml Trypsin inhibitor (from chicken egg, Sigma-Aldrich). After centrifugation through a 4% BSA cushion, neurons were plated on culture dishes coated with 0.5 mg/ml Poly-DL-Ornithine (PO, overnight, Sigma-Aldrich) and 5 mg/ml Laminin (2 h, Roche). Neuronal cultures were maintained in complete neuronal culture medium composed of serum-free Neurobasal (Gibco) supplemented with 2 mM L-Glutamine, 100 μg/ml penicillin/streptomycin (Gibco) and 2% B-27 supplement (Gibco). […]
The analysis of axonal degeneration was performed both by phase contrast observation and after immunostaining of axonal βIII-tubulin (Sigma-Aldrich). […] For each microfluidic culture, the total βIII-tubulin staining area was measured on 4 randomly selected pictures taken in the axonal chamber (MetaMorph software analysis, fixed thresholds). Then, the number of tubulin spots of fragmented axons was manually counted (Imaris software, Spot counting for “clicking” records) and the ratio between the number of spots and the total staining area was defined as a fragmentation index. […]

[3] = test system: nigrostriatal dopaminergic (DA) neurons; experiment: MPTP intoxication mouse model of PD, TH immunodetection in striatum and SNpc; type: in vivo; details: lentiviral vector, stereotaxic injection in SNpc two weeks before MPTP
Procedure: Peptides covering the N-terminal (PX1, aa 1-30), middle (PX2, aa 29-59) or C-terminal (PX3, aa 59-87) parts of BDV X protein (GenBank: ABW81015.1) coupled to the MPP sequence were synthesized to >95% (in vitro studies) or >99% (in vivo studies) purity (Génosphère). For in vitro experiments, neurons were grown for 12 days before replacing the medium by fresh complete neuronal culture medium containing 5 μM of the peptides. The cultures were maintained 90 min at 37° C., 5% CO2 before any treatment or analysis to ensure peptide penetration into neuronal mitochondria. For intra-cerebroventricular delivery, peptides were injected as described below. For intranasal peptide delivery, 10 μl drops of peptide solution (1 mM solution in saline: H2O+0.9% NaCl) were placed onto the mice nostrils daily from the day before to the 3rd day after MPTP intoxication. […]
For immunohistochemical staining, free-floating brain sections were first quenched for 5 min in 20% (v/v) methanol and 1% (v/v) hydrogen peroxide diluted in PBS, then blocked for 30 min in a 4% solution of BSA diluted in PBS-0.3% Triton-X100 and incubated overnight at 4° C. with a primary antibody directed against tyrosine hydroxylase (1:500 dilution, US biological). […] TH-positive neurons were quantified stereologically on regularly spaced sections covering the whole Substantia Nigra pars compacta (SNpc). […]

[4] = test system: mitochondrial network of primary neurons; experiment: Analysis of mitochondrial network morphology (Tom20 staining); type: cell-based, rat
Procedure: Primary cortical neurons were prepared from Sprague-Dawley rat embryos at gestational day 17. After dissection, cortex tissue was dissociated by a 15 min incubation at 37° C. in PBS containing 10 U/ml Papain (Worthington), followed by a gentle dissociation in PBS containing 1.5 mg/ml bovine serum albumin (BSA) and 1.5 mg/ml Trypsin inhibitor (from chicken egg, Sigma-Aldrich). After centrifugation through a 4% BSA cushion, neurons were plated on culture dishes coated with 0.5 mg/ml Poly-DL-Ornithine (PO, overnight, Sigma-Aldrich) and 5 mg/ml Laminin (2 h, Roche). Neuronal cultures were maintained in complete neuronal culture medium composed of serum-free Neurobasal (Gibco) supplemented with 2 mM L-Glutamine, 100 μg/ml penicillin/streptomycin (Gibco) and 2% B-27 supplement (Gibco).
Neurons were grown for 9 days at low density on 12 mm diameter glass coverslips placed in 24-well plates (5×10^4 cells per well). Transduction with lentiviral vectors was performed on day 3, whereas peptide was added to the medium on day 9. Neurons were left untreated or subjected to rotenone treatment (5 to 100 nM for 2 h, diluted in PBS), rinsed, fixed and directly stained for neuronal marker (βIII-tubulin) and mitochondria (Tom20, Santa Cruz Biotech.). Confocal pictures were taken and blinded to the investigator before image analysis. The sizes of mitochondria in all neuronal extensions of randomly selected neurons were determined using ImageJ software and mitochondria were classified in size categories (ranging from <2 μm to >8 μm). Each category was expressed as percentages relative to the size of the total mitochondrial network for a given neuron.

[5] = test system: Drp1 (S616) phosphorylation; experiment: Immunofluorescence quantification of phospho-Drp1 (S616); type: cell-based, rat
Procedure: Neurons in the microfluidic cultures were fixed for 40 min at room temperature with PBS containing 4% paraformaldehyde (PFA), permeabilized using PBS+0.1% Triton-X100 during 20 min, rinsed with PBS, and blocked for 2 h with PBS+2.5% normal goat serum+3% BSA (blocking buffer). Incubation for at least 2 h at room temperature with primary antibodies diluted in blocking buffer was followed, after extensive washes in PBS, by 1 h incubation at room temperature with fluorescently-conjugated secondary antibodies diluted in PBS. For TOPRO3 staining, somatic chambers were incubated with TOPRO3 (1:1000 in PBS; Invitrogen) for 10 min and then rinsed twice in PBS. All incubation and washes were reduced by 50% for neurons grown in standard coverslips. Fluorescence-based analyses and measurements were performed on either Zeiss LSM-510 or Zeiss LSM-710 inverted confocal microscopes with a 40× objective (63× objective for the analysis of mitochondrial network morphology and quantification of pDrp1 (S616) immunoreactivity). Immuno fluorescence analyses of Drp1 were performed using anti-pDrp1 (S616) (Cell Signaling Technologies, diluted 1:1000). Quantification of fluorescence intensities was performed using the threshold-based fluorescence quantification module of ImageJ software. All data were normalized on βIII-tubulin staining.

[6] = test system: mitochondrial membrane potential (ΔΨm) of primary neurons; experiment: Mitochondrial membrane potential analysis (JC-1); type: cell-based, rat; details: LV-transduced neurons, no stress
Procedure: Axons were stained with JC-1 dye (2 μM in PBS; LifeTechnologies) as described by the manufacturer. Briefly, JC-1 was added to the culture medium for 45 min at 37° C., 5% CO2, washed twice with PBS and analyzed by confocal microscopy using 488 nm excitation together with 530 nm and 585 nm band pass emission filters, whilst maintaining the cells at 37° C. and 5% CO2. Total fluorescence intensity was measured for each emission band pass with fixed thresholds and ratios between “red” (585 nm: active mitochondria) and “green” (530 nm: total mitochondria network) were determined for each culture (means of 4 randomly chosen pictures for each microfluidic culture).

[7] = test system: ROS production in primary neurons; experiment: ROS production measurement (c-H2DCFDA); type: cell-based, rat; details: LV-transduced neurons, no stress
Procedure: The culture medium was removed from the axonal or somatic chambers and replaced by pre-warmed PBS containing carboxy-2′,7′-dichlorodihydrofluorescein diacetate (c-H2DCFDA, 5 μM in PBS; LifeTechnologies) for 45 min at 37° C., 5% CO2. After 2 washes in PBS, cultures were returned to warm culture medium for 30 min. Cells were fixed and the integrative fluorescence was measured on 3 randomly selected fields for each axonal chamber. Tert-butyl hydroperoxide (TBHP, LifeTechnologies) was used as a positive control of ROS detection. ROS amounts were detected by fluorescence (excitation/emission: 495/529 nm) and quantified by measuring integrative emission signal intensities for each culture (mean of 4 randomly taken pictures in the case of microfluidic cultures using Zeiss LSM 510 confocal; signal intensity of the whole culture for traditional cultures, using a VarioSkan Flash fluorescence reader (Thermo Electron)).

[8] = test system: oxygen consumption rates of primary neurons; experiment: Mitochondrial respiration measurements (Seahorse XF24 OCR); type: cell-based, rat; details: LV-transduced neurons, no stress
Procedure: Real-time measurements of oxygen consumption rates (OCR) were performed using a Seahorse XF24 extracellular flux analyzer (Seahorse Bioscience). Neurons were seeded and grown for 9 days in Seahorse XF24-wells plates (3×10^4 cells/well). Transduction with lentiviral vectors was performed on the 3rd day after seeding. Before measurements, the culture medium was replaced by warm respiration medium: DMEM without phenol red supplemented with 10 mM glucose, 2 mM L-Glutamine and 2 mM Pyruvate (Gibco) (the pH of the final culture medium was adjusted to 7.4). Following three 2-minute baseline measurements of OCR (3 minute-rest between each measure), mitochondrial complex inhibitors were sequentially injected into each well. Three OCR readings were taken after addition of each inhibitor and before automated injection of the subsequent inhibitor. Mitochondrial complex inhibitors, in order of injection, were Oligomycin (2 μM) to inhibit complex V (i.e., ATP synthase), FCCP (20 μM) to uncouple the proton gradient, Rotenone (2.0 μM), to inhibit complex I and Antimycin (2.0 μM), to inhibit complex III. OCR values were automatically calculated, recorded, and plotted by the Seahorse XF24 software.

OPA1, Mfn1/2, Fis1, Drp1 = experiment: Expression and recruitment of mitochondrial fission/fusion actors; type: cell-based; details: X-expressing cells

Molecule	time to cell death (primary cortical neurons [1])	protection against rotenone-induced axonal fragmentation (primary cortical neurons [2])	ipsilateral TH-positive neurons in the SNpc after MPTP [3]	ipsilateral striatal fibers (TH) after MPTP [3]	rotenone-induced mitochondrial fission ([4]; after rotenone)	weighted mean size of mitochondria ([4]; after rotenone-induced oxidative stress (10 nM rotenone 2 h))	decrease of short, fragmented mitochondria (<2 μm) ([4]; steady state)	weighted mean size of mitochondria ([4]; steady state, without rotenone)	enhanced Drp1 phosphorylation after treatment with rotenone ([5]; after rotenone)	phosphorylation of Drp1 on serine-616 ([5]; steady state)	impact on ΔΨm at steady-state [6]	impact on ROS production at steady-state [7]	impact on respiration at steady-state [8]	expression levels of OPA1, Mfn1/2, Fis1, Drp1 vs control cells (OPA1, Mfn1/2, Fis1, Drp1)	recruitment of Drp1 to the mitochondria vs control cells (OPA1, Mfn1/2, Fis1, Drp1)
C=C(C)[C@H]1Cc2c(ccc3c2O[C@@H]2COc4cc(OC)c(OC)cc4[C@@H]2C3=O)O1 [rotenone]	< 4 h	–	–	–	–	–	–	–	–	–	–	–	–	–	–
B1	–	same level of axonal protection as infection with BDV	almost complete protection	preservation	significantly reduced	4.54 μm	60%	5.22 μm	selectively reduced	severely reduced	no impact	no impact	no impact	did not find any significant difference	no difference

From patent US10059748B2, “Pharmaceutical compositions for prevention or treatment of neurodegenerative diseases” (INSERM (INSTITUT NATIONAL DE LA SANTÉ ET DE LA RECHERCHE …, priority 2014, dated 2018)
